The target of the test is T1, trx-ALKAL2-AD^RC (K94E/K96E/K99E/H100E) (human, UniProt Q6UX46 77-152, K94E | K96E | K99E | H100E).
T1 sequence (looked up): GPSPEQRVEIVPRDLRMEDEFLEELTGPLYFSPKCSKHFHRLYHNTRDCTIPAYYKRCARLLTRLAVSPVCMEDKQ
Kind of test: BLI. Background: Biolayer interferometry detects binding as a change in optical thickness at a sensor tip.

Consider one molecule from publication PMC8639797 (Nature, 2021).

B1: site-specifically biotinylated ALK-ECR^ABR (from Fc-ALKavi) (domain or fragment, human)
chain: QTPIFDPTVHWLFTTCGASGPHGPTQAQCNNAYQNSNLSVEVGSEGPLKGIQIWKVPATDTYSISGYGAAGGKGGKNTMMRSHGVSVLGIFNLEKDDMLYILVGQQGEDACPSTNQLIQKVCIGENNVIEEEIRVNRSVHEWAGGGGGGGGATYVFKMKDGVPVPLIIAAGGGGRAYGAKTDTFHPERLENNSSVLGLNGNSGAAGGGGGWNDNTSLLWAGKSLQEGATGGHSCPQAMKKWGWETRGGFGGGGGGCSSGGGGGGYIGGNAASNNDPEMDGEDGVSFISPLGILYTPALKVMEGHGEVNIKHYLNCSHCEVDECHMDPESHKVICFCDHGTVLAEDGVSCIVSP
modifications: biotin on the C-terminal biotin acceptor peptide (co-expressed BirA)
Consider B1, for which the binding result is “binds”.
